Results as given in patent US20260055211A1 (GLYCOERA, published 2026).

Legend:
[1] = target: T1, biotinylated recombinant human ASGPR1 (Acro Biosystems) (human, UniProt P07306 62-291, biotinylated); assay: SPR (Biacore 8K), single cycle kinetics, biotinylated ASGPR1 immobilized, m1 as analyte, 2 mM CaCl2, heterogenous binding model; kd1, first component of the heterogenous binding model
T1 construct: Bought reagent
T1 sequence (looked up): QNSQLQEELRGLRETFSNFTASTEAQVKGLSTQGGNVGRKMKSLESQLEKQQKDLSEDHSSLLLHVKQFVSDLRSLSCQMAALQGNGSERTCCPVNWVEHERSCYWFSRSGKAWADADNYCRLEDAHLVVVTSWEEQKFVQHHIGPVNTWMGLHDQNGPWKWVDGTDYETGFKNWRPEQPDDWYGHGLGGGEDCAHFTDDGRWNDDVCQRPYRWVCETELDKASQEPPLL
Description: (§1) Methods: Surface plasmon resonance (SPR) was used to measure binding kinetics (i.e., ka, kd, KD, equilibrium) of the PR3 glycoengineered polypeptide analyte to a recombinant CLB12.8 ligand (anti-PR3 antibody) or a biotinylated recombinant human ASGPR1 ligand (Acro Biosystems). Data was collected with a Biocore 8K. Either recombinant CLB12.8 or ASGPR1 was immobilized to the surface of a sensor chip and sequential injections of increasing concentrations of the PR3 glycoengineered polypeptide were performed in a single cycle kinetics experiment. ASGPR1 assays included 2 mM CaCl2 in the running buffer. Data were fit with a 1:1 binding model for CLB12.8 and with a heterogenous binding model for ASGPR1 using the fitting software provided by Cytiva.

[2] = target: T1, biotinylated recombinant human ASGPR1 …; assay: SPR (Biacore 8K), single cycle kinetics, biotinylated ASGPR1 immobilized, 2 mM CaCl2, heterogenous binding model, KD1; pre-steady state KD1 (kinetic fit, first site)
Description: as §1

[3] = target: T1, biotinylated recombinant human ASGPR1 …; assay: SPR (Biacore 8K), single cycle kinetics, ASGPR1 immobilized, 2 mM CaCl2, heterogeneous binding model; column ka2 (second component)
Description: as §1

[4] = target: T1, biotinylated recombinant human ASGPR1 …; assay: SPR (Biacore 8K), single cycle kinetics, biotinylated ASGPR1 immobilized, 2 mM CaCl2, heterogenous binding model, KD2; pre-steady state KD2 (kinetic fit, second site)
Description: as §1

[5] = target: T1, biotinylated recombinant human ASGPR1 …; assay: SPR (Biacore 8K), single cycle kinetics, biotinylated ASGPR1 immobilized, m1 as analyte, 2 mM CaCl2, heterogenous binding model; ka1, first component of the heterogenous binding model
Description: as §1

[6] = target: T2, recombinant anti-PR3 antibody CLB12.8; assay: SPR (Biacore 8K), single cycle kinetics, CLB12.8 immobilized, kinetic (pre-steady state) fit, 1:1 binding model
T2 construct: Mouse monoclonal anti-PR3 antibody (detected with anti-mouse IgG); recombinant form used in SPR; also called anti-PR3 antibody clone CLB12.8; anti-PR3 mouse antibody
Description: as §1

[7] = target: T2, recombinant anti-PR3 antibody CLB12.8; assay: SPR (Biacore 8K), single cycle kinetics, CLB12.8 immobilized, m1 as analyte, 1:1 binding model
Description: as §1

[8] = target: T2, recombinant anti-PR3 antibody CLB12.8; assay: SPR (Biacore 8K), single cycle kinetics, CLB12.8 immobilized, steady state fit
Description: as §1

[9] = target: T1, biotinylated recombinant human ASGPR1 …; assay: SPR (Biacore 8K), single cycle kinetics, biotinylated ASGPR1 immobilized, 2 mM CaCl2, steady state fit; steady state KD (equilibrium fit)
Description: as §1

[10] = target: T1, biotinylated recombinant human ASGPR1 …; assay: SPR (Biacore 8K), single cycle kinetics, ASGPR1 immobilized, 2 mM CaCl2, heterogeneous binding model; column kd2 (second component)
Description: as §1

B1: PR3 glycoengineered polypeptide (other)
chain: IVGGHEAQPHSRPYMASLQMRGNPGSHFCGGTLIHPSFVLTAAHCLRDIPQRLVNVVLGAHNVRTQEPTQQHFSVAQVFLNNYDAENKLNDVLLIQLSSPANLSASVATVQLPQQDQPVPHGTQCLAMGWGRVGAHDPPAQVLQELNVTVVTAACRPHNICTFVPRRKAGICFGDAGGPLICDGIIQGIDSFVIWGCATRAAPDFFTRVALYVDWIRSTLRRVEAKGRPGGGGANSTAPAPAPAHHHHHHHHHH
modifications: N-glycans (81.5% A2GalNAc2, biantennary GalNAc-terminated) at the native sites N129 and N174 (numbering of UniProt P24158) and at the Asn of the C-terminal glycotag; 80-90% of molecules fully …
notes: Secreted from glycoengineered Leishmania tarentolae (cell line stCGP05880) and purified by IMAC; also called exemplary PR3 glycoengineered polypeptide; glycoengineered polypeptide of PR3
B1 gave a koff [1] of 7.54 s⁻¹, a Kd [2] of 46.9 nM and a kon [3] of 873 M⁻¹ s⁻¹. For the same binder, the Kd [4] was 70.6 nM, the kon [5] was 1.61e+08 M⁻¹ s⁻¹ and the Kd [6] was 24.7 nM. It also gave a koff [7] of 0.0754 s⁻¹, a kon [7] of 305000 M⁻¹ s⁻¹ and a Kd [8] of 32.4 nM. The Kd [9] was 364 nM and the koff [10] was 6.16e-05 s⁻¹.
